Data from paper PMC12871931, “The importin‐alpha superfamily engages in ethylene signaling by shuttling ETHYLENE INSENSITIVE 2 from the endoplasmic reticulum to the nucleus” (The Febs Journal, 2025).

B1: GB1‐AtEIN2C^1215–1281 (domain or fragment)
chain: KGKCTTAVTLLDLIKDVEMAISCRKGRTGTAAGDVAFPKGKENLASVLKRYKRRLSNKPVGMNQDGP

biological target: ΔIBB_IMPα1 (importin α1 lacking the IBB domain), Arabidopsis thaliana, recombinant (Arabidopsis thaliana); assay: BLI; Octet K2; biotinylated ΔIBB_IMPα1 or IMPα4 loaded (15 μM, 600 s) on streptavidin biosensors; peptides/protein in solution; 100 mM Tris pH 7.0, 100 mM KCl, 0.01% Tween 20; room temperature; 300 s association, 300 s dissociation; dose response curves, 1:2 heterogeneous ligand model

Question: How did the Kd turn out when B1 was run?
Answer: The Kd was 8.8 µM.

Question: KDVEMAISCRKGRTGTAAGDVAFPKGKENLASVLKRYKRRL [N41P‐1 (EIN2 residues 1229–1269)] was tested. Which Kd did it give?
Answer: The Kd was 8.1 µM.

Question: LKRYKRRL [NOP‐1 (EIN2 NLS peptide, EIN2 residues 1262–1269)] was tested. Which Kd did it give?
Answer: The Kd was 2.5 µM.
